According to the Immune Epitope Database (IEDB):

Columns and labels:
Assay in all cases: IEDB peptide-MHC binding, purified MHC/competitive/radioactivity; filed as Kd, often an IC50 or EC50 that approximates it; ≥ and ≤ were set here for values at or beyond the usual limits of such assays
HLA-A*02:06 = target: HLA-A*02:06
HLA-A*02:02 = target: HLA-A*02:02
HLA-A*02:03 = target: HLA-A*02:03
HLA-A*33:01 = target: HLA-A*33:01
HLA-A*03:01 = target: HLA-A*03:01
HLA-A*68:01 = target: HLA-A*68:01
HLA-A*11:01 = target: HLA-A*11:01
HLA-A*31:01 = target: HLA-A*31:01
[1] = source organism: Vaccinia virus WR
[2] = source organism: Mammarenavirus guanaritoense
[3] = source organism: Lassa virus Josiah
[4] = source organism: Lymphocytic choriomeningitis virus (strain Armstrong)
[5] = source organism: SARS coronavirus Tor2
[6] = source organism: Mammarenavirus machupoense
[7] = source organism: Mammarenavirus whitewaterense

Sequence SIKMIYDLNA has a Kd (HLA-A*02:06; [1]) of 1030 nM, a Kd (HLA-A*02:02; [1]) of 852 nM and a Kd (HLA-A*02:03; [1]) of 257 nM.
With SLVKESMASL the Kd (HLA-A*02:06; [1]) was 1430 nM, the Kd (HLA-A*02:02; [1]) was 994 nM and the Kd (HLA-A*02:03; [1]) was 7.78 nM.
SMASLKSLY gave a Kd (HLA-A*33:01; [1]) of 16100 nM, a Kd (HLA-A*03:01; [1]) of 1.21 nM and a Kd (HLA-A*68:01; [1]) of 26.5 nM. The Kd (HLA-A*11:01; [1]) was 38.4 nM and the Kd (HLA-A*31:01; [1]) was 692 nM.
With SMYGKAFNHA the Kd (HLA-A*02:06; [1]) was 4.03 nM, the Kd (HLA-A*02:02; [1]) was 6.58 nM and the Kd (HLA-A*02:03; [1]) was 0.929 nM.
Work on SSVQLSNNK yielded a Kd (HLA-A*33:01; [1]) of at least 77700 nM, a Kd (HLA-A*03:01; [1]) of 2200 nM and a Kd (HLA-A*68:01; [1]) of 19.9 nM. The Kd (HLA-A*11:01; [1]) was 5.21 nM and the Kd (HLA-A*31:01; [1]) was 4580 nM.
Sequence STFNMWREI has a Kd (HLA-A*02:06; [1]) of 94.6 nM, a Kd (HLA-A*02:02; [1]) of 5820 nM and a Kd (HLA-A*02:03; [1]) of 713 nM.
Work on STYPGNTFV yielded a Kd (HLA-A*02:06; [1]) of 0.464 nM, a Kd (HLA-A*02:02; [1]) of 10.8 nM and a Kd (HLA-A*02:03; [1]) of 0.192 nM.
SVDFVVNGHT gave a Kd (HLA-A*02:06; [1]) of at least 69800 nM, a Kd (HLA-A*02:02; [1]) of at least 70000 nM and a Kd (HLA-A*02:03; [1]) of at least 70400 nM.
Sequence SVQLSNNKY has a Kd (HLA-A*33:01; [1]) of 13600 nM, a Kd (HLA-A*03:01; [1]) of 2710 nM and a Kd (HLA-A*68:01; [1]) of 1250 nM. For the same sequence, the Kd (HLA-A*11:01; [1]) was 33.1 nM and the Kd (HLA-A*31:01; [1]) was 17500 nM.
In the case of SYSKMSVVMR, the Kd (HLA-A*33:01; [2]) is reported as 55.9 nM, the Kd (HLA-A*03:01; [2]) is reported as 9970 nM and the Kd (HLA-A*68:01; [2]) is reported as 132 nM. It also gave a Kd (HLA-A*11:01; [2]) of at least 21700 nM and a Kd (HLA-A*31:01; [2]) of 5.69 nM.
TCQGSDDIRK was tested, and the Kd (HLA-A*33:01; [3]) was at least 70000 nM, the Kd (HLA-A*03:01; [3]) was at least 70000 nM and the Kd (HLA-A*68:01; [3]) was 5710 nM. It also gave a Kd (HLA-A*11:01; [3]) of 7000 nM and a Kd (HLA-A*31:01; [3]) of at least 49900 nM.
For TIFDIVSKCI, the Kd (HLA-A*02:06; [1]) was 701 nM, the Kd (HLA-A*02:02; [1]) was 198 nM and the Kd (HLA-A*02:03; [1]) was 94.4 nM.
With TILATLNTLI the Kd (HLA-A*02:06; [1]) was 335 nM, the Kd (HLA-A*02:02; [1]) was 39.5 nM and the Kd (HLA-A*02:03; [1]) was 29.7 nM.
Sequence TISGNIYSAL has a Kd (HLA-A*02:06; [1]) of 2670 nM, a Kd (HLA-A*02:02; [1]) of 9.32 nM and a Kd (HLA-A*02:03; [1]) of 89.2 nM.
TLALSLTFI was tested, and the Kd (HLA-A*02:03; source organism: Dengue virus 4 Philippines/H241/1956) was 1.04 nM.
Work on TLGNFSWFPH yielded a Kd (HLA-A*33:01; [4]) of 12600 nM, a Kd (HLA-A*03:01; [4]) of 2150 nM and a Kd (HLA-A*68:01; [4]) of 8980 nM. The Kd (HLA-A*11:01; [4]) was 1380 nM and the Kd (HLA-A*31:01; [4]) was 570 nM.
TLGVYDYLV was tested, and the Kd (HLA-A*02:06; [5]) was 74.8 nM, the Kd (HLA-A*02:02; [5]) was 0.245 nM and the Kd (HLA-A*02:03; [5]) was 936 nM.
TLVVISVIFY showed a Kd (HLA-A*33:01; [1]) of at least 70000 nM, a Kd (HLA-A*03:01; [1]) of 3490 nM and a Kd (HLA-A*68:01; [1]) of 8660 nM. It also gave a Kd (HLA-A*11:01; [1]) of 1370 nM and a Kd (HLA-A*31:01; [1]) of 12500 nM.
For TLYICDKQSH, the Kd (HLA-A*33:01; [4]) was at least 70000 nM, the Kd (HLA-A*03:01; [4]) was 15100 nM and the Kd (HLA-A*68:01; [4]) was at least 70100 nM. It also gave a Kd (HLA-A*11:01; [4]) of at least 47800 nM and a Kd (HLA-A*31:01; [4]) of at least 34300 nM.
For TMLRNSELCH, the Kd (HLA-A*33:01; [6]) was at least 70000 nM, the Kd (HLA-A*03:01; [6]) was 10200 nM and the Kd (HLA-A*68:01; [6]) was at least 70100 nM. For the same sequence, the Kd (HLA-A*11:01; [6]) was at least 69700 nM and the Kd (HLA-A*31:01; [6]) was 8820 nM.
TRFWYINHTK gave a Kd (HLA-A*33:01; [2]) of at least 70000 nM, a Kd (HLA-A*03:01; [2]) of 1910 nM and a Kd (HLA-A*68:01; [2]) of 93.2 nM. For the same sequence, the Kd (HLA-A*11:01; [2]) was 1410 nM and the Kd (HLA-A*31:01; [2]) was 89.5 nM.
TTDDLVKSY gave a Kd (HLA-A*33:01; [1]) of 18100 nM, a Kd (HLA-A*03:01; [1]) of at least 53000 nM and a Kd (HLA-A*68:01; [1]) of 12100 nM. It also gave a Kd (HLA-A*11:01; [1]) of 747 nM and a Kd (HLA-A*31:01; [1]) of 4700 nM.
TTTIKPVSYK gave a Kd (HLA-A*33:01; [5]) of 10600 nM, a Kd (HLA-A*03:01; [5]) of 11.6 nM and a Kd (HLA-A*68:01; [5]) of 99.1 nM. The Kd (HLA-A*11:01; [5]) was 20.4 nM and the Kd (HLA-A*31:01; [5]) was 1460 nM.
TVLPHLCLDY showed a Kd (HLA-A*33:01; [1]) of 6050 nM, a Kd (HLA-A*03:01; [1]) of 4.08 nM and a Kd (HLA-A*68:01; [1]) of 701 nM. For the same sequence, the Kd (HLA-A*11:01; [1]) was 2.99 nM and the Kd (HLA-A*31:01; [1]) was 598 nM.
VADLSARNKL gave a Kd (HLA-A*02:06; [1]) of at least 35800 nM, a Kd (HLA-A*02:02; [1]) of 1170 nM and a Kd (HLA-A*02:03; [1]) of 2160 nM.
Sequence VCFWSTLFY has a Kd (HLA-A*33:01; [7]) of at least 77700 nM, a Kd (HLA-A*03:01; [7]) of 138 nM and a Kd (HLA-A*68:01; [7]) of at least 39200 nM. The Kd (HLA-A*11:01; [7]) was 930 nM and the Kd (HLA-A*31:01; [7]) was at least 77900 nM.
In the case of VLAWLYAAV, the Kd (HLA-A*02:06; [5]) is reported as 8.79 nM, the Kd (HLA-A*02:02; [5]) is reported as 0.0967 nM and the Kd (HLA-A*02:03; [5]) is reported as 0.311 nM.
With VLHDIGNPK the Kd (HLA-A*33:01; [5]) was 7770 nM, the Kd (HLA-A*03:01; [5]) was 21.5 nM and the Kd (HLA-A*68:01; [5]) was 6520 nM. For the same sequence, the Kd (HLA-A*11:01; [5]) was 34.3 nM and the Kd (HLA-A*31:01; [5]) was 1960 nM.
VTIKYSNDNR showed a Kd (HLA-A*33:01; [1]) of 6710 nM, a Kd (HLA-A*03:01; [1]) of 10300 nM and a Kd (HLA-A*68:01; [1]) of 2.33 nM. For the same sequence, the Kd (HLA-A*11:01; [1]) was 53.1 nM and the Kd (HLA-A*31:01; [1]) was 402 nM.
WFSQRGGSYK showed a Kd (HLA-A*33:01; [5]) of 114 nM, a Kd (HLA-A*03:01; [5]) of 190 nM and a Kd (HLA-A*68:01; [5]) of 142 nM. It also gave a Kd (HLA-A*11:01; [5]) of 152 nM and a Kd (HLA-A*31:01; [5]) of 178 nM.
For WIKDIMTST, the Kd (HLA-A*02:06; [1]) was 136 nM, the Kd (HLA-A*02:02; [1]) was 193 nM and the Kd (HLA-A*02:03; [1]) was 11.5 nM.
WIKNLETYT gave a Kd (HLA-A*02:06; [1]) of 8210 nM, a Kd (HLA-A*02:02; [1]) of 18300 nM and a Kd (HLA-A*02:03; [1]) of 637 nM.
With YASLTTIGT the Kd (HLA-A*02:06; [1]) was 161 nM, the Kd (HLA-A*02:02; [1]) was 409 nM and the Kd (HLA-A*02:03; [1]) was 144 nM.
For YLGVNNLPY, the Kd (HLA-A*33:01; [1]) was at least 77700 nM, the Kd (HLA-A*03:01; [1]) was 1300 nM and the Kd (HLA-A*68:01; [1]) was at least 52700 nM. The Kd (HLA-A*11:01; [1]) was 1490 nM and the Kd (HLA-A*31:01; [1]) was at least 77900 nM.
YLRGHTESI showed a Kd (HLA-A*02:06; [1]) of 90.9 nM, a Kd (HLA-A*02:02; [1]) of 0.206 nM and a Kd (HLA-A*02:03; [1]) of 0.176 nM.
YLSSVLLAL showed a Kd (HLA-A*02:06; [5]) of 8.16 nM, a Kd (HLA-A*02:02; [5]) of 0.144 nM and a Kd (HLA-A*02:03; [5]) of 0.308 nM.
Sequence YTLIYRQLT has a Kd (HLA-A*02:06; [1]) of 17600 nM, a Kd (HLA-A*02:02; [1]) of 6410 nM and a Kd (HLA-A*02:03; [1]) of 9420 nM.
In the case of YVIRHVDGKI, the Kd (HLA-A*02:06; [1]) is reported as 522 nM, the Kd (HLA-A*02:02; [1]) is reported as 621 nM and the Kd (HLA-A*02:03; [1]) is reported as 114 nM.
With YVPSAEDNY the Kd (HLA-A*33:01; [1]) was at least 77700 nM, the Kd (HLA-A*03:01; [1]) was at least 78000 nM and the Kd (HLA-A*68:01; [1]) was at least 36100 nM. It also gave a Kd (HLA-A*11:01; [1]) of at least 77900 nM and a Kd (HLA-A*31:01; [1]) of at least 77900 nM.
